Columns and labels:
[1] = substrate: CC1(C)S[C@@H]2[C@H](NC(=O)CCC[C@@H](N)C(=O)O)C(=O)N2[C@H]1C(=O)O; experiment: Kinetics of recombinant enzyme (Lineweaver-Burk); format: biochemical, Streptomyces clavuligerus; conditions: other: recombinant enzyme, pH 7.0, 50 mM HEPES buffer, 36° C.
Method: The kinetics of the native enzyme and recombinant enzyme were determined under the optimal reaction conditions for the enzyme, i.e., at pH 7.0 in 50 mM HEPES buffer at 36° C.

[2] = substrate: O=C(O)CCC(=O)C(=O)O; experiment: purified protein, by the assay type; conditions: 36° C.
[3] = substrate: CC1(C)S[C@@H]2[C@H](NC(=O)CCC[C@@H](N)C(=O)O)C(=O)N2[C@H]1C(=O)O; experiment: Kinetics of native synthase, partially purified (Mono Q eluate); format: biochemical, Streptomyces clavuligerus; conditions: other: native partially purified enzyme, Tris-HCl buffer, 36° C., pH 7.0

| Protein | Km [1] [µM] | Km ([2]; other: recombinant enzyme, pH 7.0, 50 mM HEPES buffer) [µM] | Km [3] [µM] | Km ([2]; other: native partially purified enzyme, Tris-HCl buffer, pH 7.0) [µM] |
| --- | --- | --- | --- | --- |
| recombinantly produced DAOC synthase (Streptomyces clavuligerus) (protein, made in house; host or cells: Escherichia coli K12 JM109 (plasmid pOW382)) MDTTVPTFSLAELQQGLHQDEFRRCLRDKGLFYLTDCGLTDTELKSAKDLVIDFFEHGSEAEKRAVTSPVPTMRRGFTGLESESTAQITNTGSYSDYSMCYSMGTADNLFPSGDFERIWTQYFDRQYTASRAVAREVLRATGTEPDGGVEAFLDCEPLLRFRYFPQVPEHRSAEEQPLRMAPHYDLSMVTLIQQTPCANGFVSLQAEVGGAFTDLPYRPDAVLVFCGAIATLVTGGQVKAPRHHVAAPRRDQIAGSSRTSSVFFLRPNADFTFSVPLARECGFDVSLDGETATFQDWIGGNYVNIRRTSKA | 29 | 18 |  |  |
| native synthase (Streptomyces clavuligerus) (protein, native synthase, evaluated with the partially purified enzyme; endogenous in cells; host or cells: Streptomyces clavuligerus cells, crude extract, three-step purification (Mono Q eluate)) MDTTVPTFSLAELQQGLHQDEFRRCLRDKGLFYLTDCGLTDTELKSAKDLVIDFFEHGSEAEKRAVTSPVPTMRRGFTGLESESTAQITNTGSYSDYSMCYSMGTADNLFPSGDFERIWTQYFDRQYTASRAVAREVLRATGTEPDGGVEAFLDCEPLLRFRYFPQVPEHRSAEEQPLRMAPHYDLSMVTLIQQTPCANGFVSLQAEVGGAFTDLPYRPDAVLVFCGAIATLVTGGQVKAPRHHVAAPRRDQIAGSSRTSSVFFLRPNADFTFSVPLARECGFDVSLDGETATFQDWIGGNYVNIRRTSKA |  |  | 35 | 22 |
